Reference: FireProtDB (doi:10.1006/jmbi.1995.0174)
Several values for one entry are separate records, joined by “and”; a condition that tells them apart may be missing. Equal entries are not always repeated.

Conditions: Bos taurus, Fluorescence, whole UniProt chain shown; for denaturant m value / denaturant midpoint (higher = more stable) / unfolding free energy: 25 °C, GdnHCl, CaCl2 20 mM
[1] = pH 4.2, Thermal, acetate 30 mM, reversible: yes
[2] = pH 7.5, Tris-HCl 0.1 M, reversible: no
[3] = pH 8.3, Tris-HCl 0.1 M, reversible: no
[4] = pH 5.8, MES 30 mM, reversible: yes

Protein | Tm [1] | heat capacity change of unfolding [1] | unfolding enthalpy (van 't Hoff) [1] | denaturant m value [2] [kcal/mol/M] | denaturant midpoint (higher = more stable) [2] [M] | unfolding free energy [2] [kcal/mol] | denaturant m value [3] [kcal/mol/M] | denaturant midpoint (higher = more stable) [3] [M] | unfolding free energy [3] [kcal/mol] | denaturant m value [4] [kcal/mol/M] | denaturant midpoint (higher = more stable) [4] [M] | unfolding free energy [4] [kcal/mol]
Serine protease 1 wild type, P00760 (protein) MKTFIFLALLGAAVAFPVDDDDKIVGGYTCGANTVPYQVSLNSGYHFCGGSLINSQWVVSAAHCYKSGIQVRLGEDNINVVEGNEQFISASKSIVHPSYNSNTLNNDIMLIKLKSAASLNSRVASISLPTSCASAGTQCLISGWGNTKSSGTSYPDVLKCLKAPILSDSSCKSAYPGQITSNMFCAGYLEGGKDSCQGDSGGPVVCSGKLQGIVSWGSGCAQKNKPGVYTKVCNYVSWIKQTIASN | 66 °C and 65 °C | 3.09 kcal/mol/K and 2.64 kcal/mol/K | 150 kcal/mol and 164 kcal/mol | 4.22 | 2.5 | 10.6 | 4.1 | 2.27 | 9.3 | – | – | –
Anionic trypsin wild type, Q29463 (protein) MHPLLILAFVGAAVAFPSDDDDKIVGGYTCAENSVPYQVSLNAGYHFCGGSLINDQWVVSAAHCYQYHIQVRLGEYNIDVLEGGEQFIDASKIIRHPKYSSWTLDNDILLIKLSTPAVINARVSTLLLPSACASAGTECLISGWGNTLSSGVNYPDLLQCLVAPLLSHADCEASYPGQITNNMICAGFLEGGKDSCQGDSGGPVACNGQLQGIVSWGYGCAQKGKPGVYTKVCNYVDWIQETIAANS | – | – | – | – | – | – | – | – | – | 5.74 | 2.19 | 12.5
